Assay results: patent US20220024983A1, “BICYCLIC PEPTIDE LIGANDS SPECIFIC FOR IL-17” (BicycleRD Limited, priority 2018, published 2022)
*1 amine or outer side, *2 acyl side, *3 side chain or, on linkers, in order; H or OH if unused. Bridges are numbered along the chain shown (N, C = ends). Where no end group is shown, it is not given here. TBMB = c1c(C[*:1])cc(C[*:3])cc1C[*:2]

Columns and labels:
human IL-17A dimer [1] = target: T1, human IL-17A dimer (human, UniProt Q16552 24-155); experiment: binding assay, method analogous to WO 2011/141823
T1 construct: also called hIL17-A
T1 sequence (looked up): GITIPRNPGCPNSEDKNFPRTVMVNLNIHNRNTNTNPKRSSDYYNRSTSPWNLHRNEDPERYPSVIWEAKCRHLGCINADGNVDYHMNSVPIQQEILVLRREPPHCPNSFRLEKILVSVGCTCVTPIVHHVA

human IL-17E = target: T2, human IL-17E (human, UniProt Q9H293 33-177); experiment: binding assay, method analogous to WO 2011/141823; column head prints hIL17-F, read as IL-17E by paragraph 30
T2 construct: also called hIL17-E; IL-25
T2 sequence (looked up): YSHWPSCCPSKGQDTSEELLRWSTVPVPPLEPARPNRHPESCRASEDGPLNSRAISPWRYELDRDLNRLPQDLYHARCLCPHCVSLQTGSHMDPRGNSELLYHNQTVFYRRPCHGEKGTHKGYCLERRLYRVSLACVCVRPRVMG

human IL-17A dimer [2] = target: T1, human IL-17A dimer; experiment: binding assay, method analogous to WO 2011/141823; remark: listed apart in the source
mouse IL-17A dimer = target: T3, mouse IL-17A dimer (mouse, UniProt Q62386 26-158); experiment: binding assay, method analogous to WO 2011/141823
T3 sequence (looked up): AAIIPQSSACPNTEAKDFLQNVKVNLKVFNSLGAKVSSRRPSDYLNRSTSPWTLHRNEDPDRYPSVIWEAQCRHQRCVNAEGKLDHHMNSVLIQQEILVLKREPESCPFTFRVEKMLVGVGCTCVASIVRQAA

human IL-17A dimer [3] = target: T1, human IL-17A dimer; experiment: binding assay, method analogous to WO 2011/141823; Mean column, n=2
human IL-17A dimer [4] = target: T1, human IL-17A dimer; experiment: FP competition, competitor: tracer BCY2311; Ki Mean column, n=6
Method: (§1) Affinity determination by fluorescence polarization (FP) competition. […] Peptides were diluted to an appropriate concentration in assay buffer (PBS+0.01% Tween20, adjusted to pH7.4 using NaOH (1M)) with a maximum of 1% DMSO, then serially diluted 1 in 2 into assay buffer. […] The PHERAstar FS was set at 25° C. with 200 flashes per well and a positioning delay of 0.1 second, with each well measured at 5 to 10 minute intervals for 60 minutes. […] Data analysis was performed in Dotmatics where mP values were fit to the Cheng Prusoff equation in order to generate a Ki value.

human IL-17A dimer [5] = target: T1, human IL-17A dimer; experiment: FP competition, competitor: tracer BCY2311
Method: as §1

human IL-17A dimer [6] = target: T1, human IL-17A dimer; experiment: FP competition, competitor: tracer BCY2315; Ki Mean column, n=2
Method: as §1

human IL-17A dimer [7] = target: T1, human IL-17A dimer; experiment: FP competition, competitor: tracer BCY2315
Method: as §1

CPENELYCFLSSQQC (linker 1-8-15 via TBMB, Bicyclic peptide) [BCY2232]
Kd (human IL-17A dimer [1]): 398 nM

ACGYDYYCALYDICA (linker 2-8-14 via TBMB, Bicyclic peptide) [BCY2240 [A-(SEQ ID NO: 56)-A]]
Kd (human IL-17E): 198 nM

B1: BCY2310 (peptide)
peptide: ACPQDLELCTFLFGDCAXXXXXXK
modifications: Ci, Cii and Ciii cyclised with TBMB; six sarcosines (written X) after the C-terminal Ala; fluorescein (Fl) on the C-terminal Lys
Kd (human IL-17A dimer [2]): 26.6 nM | Kd (mouse IL-17A dimer): 110 nM | Kd (human IL-17A dimer [3]): 26.6 nM

Ac-CYEAELCAFLGLC (linker 1-7-13 via TBMB, Bicyclic peptide) [BCY2240 [Ac-(SEQ ID NO: 36)]]
Ki (human IL-17A dimer [4]): 25.7 nM | Ki (human IL-17A dimer [5]): 26.9 nM

CYEDELCEFLALC (linker 1-7-13 via TBMB, Bicyclic peptide) [BCY2249]
Ki (human IL-17A dimer [6]): 65 nM | Ki (human IL-17A dimer [7]): 65 nM
